Experimental findings from patent publication US20090004214A1 (COMMISSARIAT A L ENERGIE ATOMIQUE, published 2009) are described below.

Assay [1] concerns the target T1, HLA-DR15 molecule (DRB1*1501) (human).
T1 construct: HLA class II heterodimer
Description: competitive ELISA, tracer A3 152-166. In general terms: In an ELISA, binding on a coated surface is turned into a signal by an enzyme label.

The target in assay [2] is T2, HLA-DRB5 molecule (DRB5*0101) (human).
T2 construct: HLA class II heterodimer
Description: competitive ELISA, tracer HA 306-318.

In assay [3] the target is T3, HLA-DR11 molecule (DRB1*1101) (human).
T3 construct: HLA class II heterodimer
Description: competitive ELISA, tracer HA 306-318.

The target of assay [4] is T4, HLA-DR1 molecule (DRB1*0101) (human).
T4 construct: HLA class II heterodimer
In words: competitive ELISA, tracer HA 306-318.

Assay [5] deals with T5, HLA-DR7 molecule (DRB1*0701) (human).
T5 construct: HLA class II heterodimer
Description: competitive ELISA, tracer YKL.

The target in assay [6] is T6, HLA-DR13 molecule (DRB1*1301) (human).
T6 construct: HLA class II heterodimer
Description: competitive ELISA, tracer B1 21-36.

Assay [7] addresses T7, HLA-DR3 molecule (DRB1*0301) (human).
T7 construct: HLA class II heterodimer
Description: competitive ELISA, tracer MT 2-16.

Assay [8] addresses T8, HLA-DP401 molecule (DPB1*0401) (human, UniProt P20036 29-222, limits assumed).
T8 construct: HLA class II heterodimer; also called DP*0401
Description: competitive ELISA, tracer Oxy 271-287.

Assay [9] deals with T9, HLA-DP402 molecule (DPB1*0402) (human, UniProt P20036 29-222, limits assumed).
T9 construct: HLA class II heterodimer; also called DP*0402
In words: competitive ELISA, tracer Oxy 271-287.

Assay [10] has as its target T10, HLA-DRB4 molecule (DRB4*0101) (human).
T10 construct: HLA class II heterodimer
Description: competitive ELISA, tracer E2/E168.

Assay [11] has as its target T11, HLA-DR4 molecule (DRB1*0401) (human).
T11 construct: HLA class II heterodimer
In words: competitive ELISA, tracer HA 306-318.

Assay [12] deals with T12, HLA-DRB3 molecule (DRB3*0101) (human).
T12 construct: HLA class II heterodimer
Description: competitive ELISA, tracer LOL 191-210.

Assay [13] deals with T13, HLA-DR13 molecule (DRB1*1301) (human).
T13 chain 1: not shown
T13 chain 2: not shown
Description: competitive ELISA, nonbiotinylated peptide vs its biotinylated tracer.

For assay [14] the target is unchanged. Description: competitive ELISA, tracer B1 21-36.

No end group written: not given here.

Usually IC50 stands for the point on the concentration scale where inhibition reaches its midpoint. Read a low IC50 as greater potency in that assay. Consider KEFEETAKKVRRAIE (synthetic 15-mer) [survivin peptide 122-136], for which the IC50 in [1] turned out to be 1200 nM; in assay [2], 447 nM; in assay [3], 310 nM; in assay [4], 5560 nM; in assay [5], 20000 nM; in assay [6] it was 995 nM. The same molecule had an IC50 in assay [7] of 5810 nM.

AKKVRRAIEQLAAMD (synthetic 15-mer) [survivin peptide 128-142]: the half-maximal inhibitory concentration (IC50) in assay [8] amounted to 13000 nM; in [9], 20000 nM; in [1], 284 nM; in assay [10], 1800 nM; in assay [5], 1340 nM; in assay [7], 12000 nM.

As for PAWQPFLKDHRISTF (synthetic 15-mer) [survivin peptide 8-22], the IC50 in assay [8] stood at 21000 nM; in assay [9] it was 10400 nM; in assay [1], 5200 nM; in [10], 29000 nM; in [11] it was 46000 nM; in assay [2], 2190 nM. For the same molecule, the IC50 amounted to 6570 nM in assay [4]; 9390 nM in assay [5]; 2310 nM in assay [6]; 16000 nM in [7]; 8720 nM in [12].

For the molecule GEFLKLDRERAKNKI (synthetic 15-mer) [survivin peptide 99-113], the concentration for half-maximal inhibition (IC50) came out at 40000 nM in assay [8]; 1200 nM in assay [1]; 22000 nM in [10]; 2130 nM in [11]; 22 nM in [2]; 40 nM in assay [3]. The IC50 in assay [4] is 48 nM; in assay [5], 6460 nM; in assay [6], 9160 nM; in assay [7], 4670 nM.

In the case of AGFIHCPTENEPDLA (synthetic 15-mer) [survivin peptide 41-55], the 50% inhibitory concentration (IC50) in assay [1] was determined as 7000 nM; in assay [10] it was 328 nM; in assay [11], 5000 nM; in [2], 3380 nM; in assay [3], 1150 nM; in [4], 2320 nM. The IC50 turned out to be 3740 nM in assay [5] and 10000 nM in assay [12].

On to CAFLSVKKQFEELTL (synthetic 15-mer) [survivin peptide 84-98], for which the IC50 in assay [8] came out at 167 nM; in assay [9], 113 nM; in assay [1], 574 nM; in assay [10], 1330 nM; in assay [11], 19000 nM; in assay [2], 1770 nM. Moreover, the IC50 in [3] was 10 nM; in assay [4] it was 2830 nM; in assay [5], 179 nM; in assay [6], 845 nM; in assay [7], 2570 nM; in assay [12], 11800 nM.

Consider FEELTLGEFLKLDRE (synthetic 15-mer) [survivin peptide 93-107], for which the IC50 in [8] stood at 20 nM; in assay [9] it was 67 nM; in [1], 612 nM; in assay [11], 5500 nM; in [2], 529 nM; in assay [3] it was 548 nM. The half-inhibitory concentration (IC50) in [4] amounted to 128 nM; in assay [5] it was 2790 nM; in assay [6] it was 7800 nM; in assay [12], 45000 nM.

As to LSVKKQFEELTLGEF (synthetic 15-mer) [survivin peptide 87-101], the IC50 in assay [8] amounted to 3670 nM; in assay [9] it was 6390 nM; in [1] it was 4800 nM; in [10], 9800 nM; in [11] it was 6450 nM; in [2] it was 6000 nM. Moreover, the IC50 is 2060 nM in [3], 150 nM in assay [4], 705 nM in [5] and 6800 nM in assay [12].

Regarding KKQFEELTLGEFLKL (synthetic 15-mer) [survivin peptide 90-104], the IC50 in assay [8] was determined as 48 nM; in [9], 19 nM; in [1], 7500 nM; in [11], 748 nM; in assay [2], 280 nM; in assay [3] it was 2350 nM. The values for the 50% inhibitory concentration (IC50) in assay [4], in assay [5] and in assay [12] were 40 nM, 140 nM and 48000 nM, respectively.

For TERVRLVTRHIYNREE (not fully specified) [B1 21-36 peptide (nonbiotinylated)], the IC50 in assay [13] came to 800 nM; in assay [14] it was 609 nM.

For LTLGEFLKLDRERAK (synthetic 15-mer) [survivin peptide 96-110], the IC50 came out at 2920 nM in assay [8]; 620 nM in [9]; 490 nM in assay [1]; 3600 nM in assay [10]; 1670 nM in assay [11]; 103 nM in assay [2]. Moreover, the half-inhibitory concentration (IC50) in [3] amounted to 7 nM; in assay [4], 18 nM; in assay [5], 5640 nM; in [6], 302 nM; in assay [7] it was 5480 nM.

QPFLKDHRISTFKNW (synthetic 15-mer) [survivin peptide 11-25]: the IC50 in assay [8] was determined as 33000 nM; in assay [9], 25000 nM; in [1], 22 nM; in [10], 75000 nM; in assay [11], 45000 nM; in assay [2], 2260 nM. The IC50 in assay [3] came to 329 nM; in assay [4], 6000 nM; in [5], 8000 nM; in assay [6], 2410 nM; in assay [7] it was 65000 nM; in [12], 3670 nM.

Regarding PDLAQCFFCFKELEG (synthetic 15-mer) [survivin peptide 52-66], the IC50 in assay [9] came to 4580 nM; in assay [1], 2240 nM; in assay [11] it was 22000 nM; in assay [2], 5350 nM; in assay [3] it was 92 nM; in assay [4], 4100 nM. For the same molecule, the IC50 was 6670 nM in [5], 23000 nM in assay [6], 11800 nM in [7] and 12600 nM in [12].

As to KQFEELTLGEFLKLD (synthetic 15-mer) [survivin peptide 91-105], the IC50 in [8] is 11 nM; in assay [9], 12 nM; in [1], 3160 nM; in assay [11] it was 1590 nM; in assay [2], 145 nM; in [3], 2350 nM. Moreover, the values for the half-maximal inhibitory concentration (IC50) in assay [4], in [5] and in [12] were 12 nM, 56 nM and 30000 nM, respectively.
